The subject of one assay is Ren-2 rats. Kind of assay: Hemodynamics, hypertrophy and fibrosis in Ren-2 transgenic rats with and without ARB. Type of assay: in vivo, rat. Particulars: 0.05 mg/kg/day candesartan from 7-13 weeks of age. The method, then:
Homozygous Ren-2 rats were obtained from the Max-Delbrück-Zentrum für Molekulare Medizin, Berlin, Germany. 30 male Ren-2 rats on a Sprague Dawley (SD) background and 9 age-matched SD rats as controls were studied. Of 30 Ren-2 rats, 8 were sacrificed at 10-weeks of age and 8 were treated with 0.05 mg/kg/day of candesartan, an angiotensin II receptor type I blocker (ARB), from 7-13 weeks of age. Of the remaining 14 untreated Ren-2 rats, 6 were sacrificed at 13 weeks upon the development of clinical signs of heart failure and designated as HF-S rats. The remaining 8 Ren-2 rats were closely monitored and were sacrificed at 17 weeks when clinical signs of failure had not yet appeared. These rats were designated as HF-R rats. Hemodynamic parameters were determined before sacrifice and heart, lung and body weight were measured after the sacrifice. The procedure for care and treatment of animals was approved by the institutional animal care committee. Homozygous Ren-2 rats were obtained from the Max-Delbrück-Zentrum für Molekulare Medizin, Berlin, Germany. We studied 16 male Ren-2 rats and 8 age-matched controls from the non-transgenic background, Sprague Dawley (SD) rats. […] The remaining 4 Ren-2 rats were monitored and were sacrificed at 17 weeks when signs of clinical failure had not appeared. […] Heart, lung and body weight were measured after the sacrifice. […]

A further assay has as its system Rat cardiac fibroblasts. Kind of assay: Cardiac fibroblast proliferation, methyl-[3H]thymidine incorporation. It is filed as cell-based. Conditions: 24 hours, control 145±4.8, p<0.01. The method, then: (§1) Rat cardiac fibroblasts were isolated from 2-day-old neonatal Sprague-Dawley rats, as described previously (Pokharel et al., Hypertension, 40: 155-161, 2002). Cells were cultured in Dulbecco's modification of eagle's medium (DMEM) supplemented with 10% foetal bovine serum (FBS), along with 1% L-glutamate, 50 U/mL penicillin, and 0.1 g/L streptomycin, and were incubated at 37° C. in a humidified 5% CO2 atmosphere. Twenty-four hours after seeding, cells were made quiescent by incubation with media containing 0.5% FBS for 24 hours. Cells were then treated with murine recombinant galectin-3 (control, 10 μg/ml and 30 μg/ml) for 24 hours. The number of dividing cells was determined by radio-labelled methyl-[^3H] thymidine incorporation (0.5 μCi per well) assay. Radioactivity was measured in the mixture of fibroblasts and scintillation liquid using LKB-Wallace beta counter (FSA Laboratory Supplies, Loughborough, UK).
In general terms: Dividing cells build labelled thymidine or BrdU into new DNA.

In the next assay the test system is cardiac fibroblasts. Kind of assay: Secreted collagen, [3H]proline incorporation assay. It is filed as cell-based, rat. The method, then: as §1
Secreted collagen was measured using a [^3H]proline incorporation assay. Briefly, cardiac fibroblasts were seeded in 6-well plates at 90-100% confluency. During the final 24 hours of incubation, 15 μCi/ml of L-[^3H]proline was added. Incorporated [^3H] proline from the condition medium was precipitated with 10% trichloroacetic acid (TCA) and counted with the scintillation counter. Statistical Analyses

In the assay on Ren-2 rats (evaluated at 13 weeks), `CCOc1nc2cccc(C(=O)O)c2n1Cc1ccc(-c2ccccc2-c2nnn[nH]2)cc1` [candesartan] yielded a dP/dtmax of 8400±202 mmHg/s. Also, the “LV weight/body weight %” value with Ren-2 rats (evaluated in sacrificed animals at 13 weeks) was determined as 2.52±0.36%.

B1: galectin-3: murine recombinant galectin-3 added exogenously to rat cardiac fibroblasts (protein, UniProt P16110 2-264, looked up)
Galectin-3: ADSFSLNDALAGSGNPNPQGYPGAWGNQPGAGGYPGAAYPGAYPGQAPPGAYPGQAPPGAYPGQAPPSAYPGPTAPGAYPGPTAPGAYPGQPAPGAFPGQPGAPGAYPQCSGGYPAAGPYGVPAGPLTVPYDLPLPGGVMPRMLITIMGTVKPNANRIVLDFRRGNDVAFHFNPRFNENNRRVIVCNTKQDNNWGKEERQSAFPFESGKPFKIQVLVEADHFKVAVNDAHLLQYNHRMKNLREISQLGISGDITLTSANHAMI
In the case of B1, the “cardiac fibroblast proliferation (thymidine incorporation)” value is reported as 309±4.8 cpm in the assay on Rat cardiac fibroblasts (galectin-3 at 10 μg/ml) and 347±17.5 cpm in the assay on Rat cardiac fibroblasts (galectin-3 at 30 μg/ml). Moreover, the “proline incorporation (collagen production)” value in the assay on cardiac fibroblasts (galectin-3 at 10 μg/ml, not significant, p=0.13) worked out at 992±72 cpm; with cardiac fibroblasts (galectin-3 at 30 μg/ml, control 707±52.8 cpm, p<0.05), 1066±56 cpm. Also, in the assay on cardiac fibroblasts (galectin-3 at 30 μg/ml vs control), the “increase in proline incorporation” value was “approximately 66%”.

For the origin of these results see patent US8084276B2, “Method for identifying a subject at risk of developing heart failure by determining the level of galectin-3 or thrombospondin-2” (Universiteit Maastricht, priority 2003, dated 2011).
